In article PMC2797608:

Target: methyltransferase domain of human GLP (residues 951-1235) (human)
Test: not stated; affinity of GLP for H3 peptides; the method of the affinity is not told; the methods describe only a SAHH-coupled kinetic assay of GLP (Km, kcat; peptide 2 uM to 4 mM, 70 uM SAM, room temperature, 25 mM potassium phosphate pH 8)

- decrease in affinity against the peptide not methylated at K4: 43%
Substance: H3K9 peptide trimethylated at lysine 4
